Measurements published in patent US7098304B1, “Assay for the diagnosis of schizophrenia based on a new peptide” (Yeda Research and Development Co. Ltd., priority 1998, dated 2006).

B1: Enolase from Rabbit: commercially available rabbit protein enolase (protein)
chain: AMQKIFAREILDSRGNPTVEVDLHTAKGRFRAAVPSGASTGIYEALELRDGDKSRYLGKGVLKAVEHINKTLGPALLEKKLSVVDQEKVDKFMIELDGTENKSKFGANAILGVSLAVCKAGAAEKGVPLYRHIADLAGNHDLVLPVPAFNVINGGSHAGNKLAMQEFMILPVGASSFREAMRIGAEVYHHLKGVIKAKYGKDATNVGDEGGFAPNILENNEALELLKTAIQAAGYPDKVVIGMDVAASEFHRNGKYDLDFKSPDDPARHITGQKLGELYKSFIKNYPVVSIEDPFDQDDWATWTSFLSGVDIQIVGDDLTVTNPKRIAQAVEKKACNCLLLKVNQIGSVTESIQACKLAQSNGWGVMVSHRSGETEDTFIADLVVGLCTGQIKTGAPCRSERLAKYNQLMRIEEALGDKAVFAGRKFRNPKAK
B2: G-3-P-Dehydrogenase from bacillus subtilis: glyceraldehyde-3-phosphate dehydrogenase (G3PD) enzyme from bacillus subtilis (protein)
chain: AVKVGINGFGRIGRNVFRAALNNPEVEVVAVNDLTDANMLAHLLQYDSVHGKLDAEVSVDGNNLVVNGKTIEVSAERDPAKLSWGKQGVEIVVESTGFFTKRADAAKHLEAGAKKVIISAPANEEDITIVMGVNEDKYDAANHDVISNASCTTNCLAPFAKVLNDKFGIKRGMMTTVHSYTNDQQILDLPHKDYRRARAAAENIIPTSTGAAKAVSLVLPELKGKLNGGAMRVPTPNVSLVDLVAELNQEVTAEEVNAALKEAAEGDLKGILGYSEEPLVSGDYNGNKNSSTIDALSTMVMEGSMVKVISWYDNESGYSNRVVDLAAYIAKKGL

Assays:
[1] = test system: SDAs (schizophrenic derived antibodies); test: Reactivity of proteins to SDAs (platelet autoantibodies from schizophrenic patients), blot with anti-human Fc-HRP; format: binding; conditions: number of SDA samples that reacted positively with the enzyme, of 8 patients
Description: (§1) 1. Platelets and Anti-Platelet Autoantibodies Venous blood (20 ml) was drawn with heparin as anticoagulant from patients and control subjects. Platelet rich plasma (PRP) was obtained by centrifugation (100 g for 20 mins) at room temperature. Plasma free platelets were obtained by washing them three times with phosphate buffered saline (PBS) supplemented with 10 ml mM EDTA as anticoagulant (4000 g; 15 mins; 4° C.). For the isolation of anti-platelet antibodies, the platelets were incubated with 0.1 M glycine/10 mM EDTA, pH 2.8, for 10 min. at room temperature and then centrifuged (4000 g; 15 min; 4° C.). The supernatant containing the anti-platelet antibodies, was neutralized with saturated Na2PO4 solution and stored at −20 until use. 2. Preparative Isoelectric Focusing
(§2) The fractions were analyzed for immuno-reactivity by polyacrylamide (10%) gel electrophoresis, blotting the proteins onto PVDF membranes and probing the membrane with 1 ml auto-antibodies in 50 ml incubation buffer. Anti-human Fc conjugated to horseradish peroxidase (goat) from SIGMA (1:500 dilution) and Fast-DAB™ (SIGMA) or 4-Chloro-naphthol (SIGMA) were used as color reagent in order to detect bound human anti-platelet antibodies.
(§3) Every fifth fraction (0.1 ml) was dot blotted onto PVDF membranes using the DotBlot device (96 wells) from BioRad. Immuno-reactive fractions were then detected as described above (1.3) […]

[2] = test system: NSDAs (non-schizophrenic derived antibodies); test: Reactivity of proteins to NSDAs (platelet autoantibodies from control non-schizophrenic individuals), blot with anti-human Fc-HRP; format: binding; conditions: number of NSDA samples that reacted positively with the enzyme, of 8 controls
Description: as §1, §2, §3

Molecule | Patients (n = 8) Positive [1] | Controls (n = 8) Positive [2]
B1 | 7/8 | 1/8
B2 | 1/8 | 2/8
